# B1: Azurin wild type, P00282 (protein)
# chain: MLRKLAAVSLLSLLSAPLLAAECSVDIQGNDQMQFNTNAITVDKSCKQFTVNLSHPGNLPKNVMGHNWVLSTAADMQGVVTDGMASGLDKDYLKPDDSRVIAHTKLIGSGEKDSVTFDVSKLKEGEQYMFFCTFPGHSALMKGTLTLK
# Conditions: Pseudomonas aeruginosa (strain ATCC 15692 / DSM 22644 / CIP 104116 / JCM 14847 / LMG 12228 / 1C / PRS 101 / PAO1); pH 7.03; 20 °C; Thermal; DSC; phosphate buffer 10 mM; sodium chloride 40 microM; reversible: no; whole UniProt chain shown
protein,measurement,value
B1,unfolding enthalpy (calorimetric),14.6 kcal/mol
same,unfolding free energy,14.3 kcal/mol
